Reference: publication PMC10804811 (Protein Science : A Publication of the Protein Society, 2024)
Substitutions are numbered along the chain they refer to. In names and notes the source's numbering stands.

B1: HsCNNM4 extracellular domain A149S (Jalili syndrome mutation) (domain or fragment, human, UniProt Q6P4Q7 44-175, looked up)
chain: GTIVGMRLASCNKSCGTNPDGIIFVSEGSTVNLRLYGYSLGNISSNLISFTEVDDAETLHKSTSCLELTKDLVVQQLVNVSRGNTSGVLVVLTKFLRRSESMKLYSLCTRAQPDGPWLKWTDKDSLLFMVEE
B2: HsCNNM4 extracellular domain N85D (Jalili syndrome mutation) (domain or fragment, human, UniProt Q6P4Q7 44-175, looked up)
chain: B1 chain with N42D, S106A
B3: HsCNNM4 extracellular domain (residues 44–175), wild type (domain or fragment, human, UniProt Q6P4Q7 44-175, looked up)
chain: B1 chain with S106A
B4: HsCNNM4 extracellular domain (residues 44–175) R50A (domain or fragment, human, UniProt Q6P4Q7 44-175, looked up)
chain: B1 chain with R7A, S106A
B5: HsCNNM4 extracellular domain M145T (Jalili syndrome mutation) (domain or fragment, human, UniProt Q6P4Q7 44-175, looked up)
chain: B1 chain with M102T, S106A
B6: HsCNNM4 extracellular domain E95Q (Jalili syndrome mutation) (domain or fragment, human, UniProt Q6P4Q7 44-175, looked up)
chain: B1 chain with E52Q, S106A

Tests used:
[1] = biological target: EgCNNM4 extracellular domain (residues 25–153), wild type (Echinococcus granulosus); assay: AUC
AUC = biological target: the molecule itself; assay: AUC

stoichiometry N [1] | Molecule | stoichiometry N (AUC)
2 | EgCNNM4 extracellular domain (residues 25–153), wild type (domain or fragment) | 
 | B1 | 2
 | B2 | 2
 | B3 | 2
 | B4 | 2
 | B5 | 2
 | B6 | 2
